Measured values from paper PMC9941469.

Target: phosphorylated Smad5 (pSmad5), mouse (UniProt P97454)
Assay: Co-Immunoprecipitation
Conditions: parent: est. 100; read off a plot

UniProt P97454, sequence (P97454 whole entry): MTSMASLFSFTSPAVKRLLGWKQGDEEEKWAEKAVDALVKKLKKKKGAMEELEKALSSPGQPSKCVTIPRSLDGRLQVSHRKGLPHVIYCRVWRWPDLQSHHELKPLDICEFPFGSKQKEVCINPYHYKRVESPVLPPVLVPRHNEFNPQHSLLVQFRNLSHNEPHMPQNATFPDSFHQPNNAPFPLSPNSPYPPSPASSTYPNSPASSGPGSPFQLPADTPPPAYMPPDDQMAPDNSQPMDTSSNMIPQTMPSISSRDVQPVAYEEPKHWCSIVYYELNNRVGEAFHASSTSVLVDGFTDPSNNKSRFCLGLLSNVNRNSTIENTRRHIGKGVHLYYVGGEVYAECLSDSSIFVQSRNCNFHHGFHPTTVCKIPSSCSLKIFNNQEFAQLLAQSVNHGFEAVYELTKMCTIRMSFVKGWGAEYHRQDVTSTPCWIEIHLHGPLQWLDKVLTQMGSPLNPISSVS

Substance: Hoxd13 (homeobox D13), wild type, mouse (from UniProt P70217) R306L
- percent of parent: 70 % of WT
